Measured values as given in the supplement of paper PMC9170038.

System: K4 kissing-loop RNA reporter
Test: apparent KD of K4 kissing-loop reporter; higher = weaker reporter binding
Conditions: Eterna round: R107
Protocol: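 RNA-MaP round R107: designed RNA switches with theophylline, tryptophan, arginine or FMN aptamers are transcribed on-chip within common flanks. They are titrated with a labelled K4 kissing-loop RNA reporter in RNA-MaP buffer (100 mM Tris pH 7.5, 80 mM KCl, 4 mM MgCl2), without ligand or with the indicated ligand. Median apparent KD per design.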

[1] = input ligand: theophylline 20 uM
[2] = input ligand: tryptophan 2.4 mM
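Further: bound reporter read as fluorescence of individual clusters on recovered sequencing chips by microscopy, with normalized cluster intensities fitted with a binding model.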

Sequence | apparent KD of K4 kissing-loop reporter (input ligand: FMN 200 uM) [nM] | apparent KD of K4 kissing-loop reporter (input ligand: arginine 13.2 mM) [nM] | apparent KD of K4 kissing-loop reporter (input ligand: none) [nM] | apparent KD of K4 kissing-loop reporter [1] [nM] | apparent KD of K4 kissing-loop reporter [2] [nM]
CCUAUCUCAUACGAUACCAGUCCGAGUGAUGUUCGAAAAUAAAUAAAUUUGCCAUAUAAUGACCCUUGGCAGCGUAUGGGAUAGG [Ex Theophylline B K4 11] | 354 | 296 | 351 | 400 | 300
CCUAUCUCAUACGAUACCAGUGAAUUAAUAUUUAUAAGCAGUGAUGUUGCAUUCCAAGUACACCCUUGGCAGCGUAUGGGAUAGG [Ex Theophylline B K4 20] | 147 | 151 | 151 | 159 | 120
CCUAUCUGUUACGAUACCAGUCAAAGAUAUUUUAUCAAUGCCCUCACCGAGUGAUGUUCGGACCCUUGGCAGCGUCUGGGAUAGG [pnnbmullin] | 187 | 138 | 185 | 119 | 150
CCUGAUCCUAGUGAUGUUAGGUCCAACGGCCGAGGACCGGUACGGCCGCCACUCGUCAAUUGGAAACAGCCCACGGGCACCGGGU [theeternabot_sameState_KL_Trp_A_19] | 825 | 502 | 906 | 814 | 783
CGAAAUAGAACGGCCGCCACUGUAAGUCCUGACAGUAAGUGAUGUUUGAAAGAUUCGGGUAUUCGCAGGACCGGGUUCGUCAUAA [theeternabot_sameState_KL_Trp_B_13] | 886 | 844 | 1260 | 759 | 754
CGAAGAGAGUGAUGUUCUCUAGGCAAAAGAAAGGAUAUAAUGUUUGUUAGAAGGUUCGGAAAAUGGAACGUCGGCCCGUACAACC [theeternabot_exclusion_KL_FMN_A_18] | 151 | 129 | 139 | 127 | 121
CGAGUGAUGUUCGAAGAGUUGUUAAGCGAUACCAGCUAGGAAACUGGCCCUUGGCAGCGUAAUAAGUUAAUAAAUAAAUGAUCAC [whbob_Ex_Theo_A_th64] | 376 | 411 | 360 | 449 | 301
CGAGUGAUGUUCGUUCGUUUAUUUCGUUGACAGGAUAUGCGGAAACGCAGAAGGGUCACCUUUGAGUUAACGGAAUUUACGUUAU [Ex FMN A 27] | 614 | 487 | 587 | 552 | 546
CGAGUGAUGUUCGUUCGUUUAUUUGGGUGACAGGAUAUGCGGAAACGCAGAAGGGUCACCUUCGGGUUACCCGAAUUAACGUUAU [#09 K4 FMN A Exclusion] | 724 | 520 | 688 | 587 | 717
CGCAAGCAGCCAGUGAUGUUGGCCGCCUUGCGAGGACCGGUACGGCCGCCACUCGAAGGCGGCUACUGGUAAACCGCCUAACGGA [Onzaenla] | 93.3 | 83.6 | 92.9 | 85.4 | 96.4
CGCAAGCAGCCAGUGAUGUUGGCCGCCUUGCGAGGACCGGUACGGCCGCCACUCGAAGGCGGCUAGUAGUAGUCUGUCUAACGGA [KL-XTryp-A16] | 104 | 107 | 112 | 74 | 184
CGCAAGCAGCCAGUGAUGUUGGCUGCCUUGCGAGGACCGGUACGGCCGCCACUCGAAGGCAGCUACUGGUAAACCGUCUAACGGA [Atere] | 117 | 105 | 111 | 90.7 | 250
CGCAAUCGAACUGAUACCAGUCAUAAUGGCUGAGAAGCACGAGUGAUGUUCGUAACGAAUGACCCUUGGCAGCAGUUCGAUUGCG [Theo B SS t8] | 706 | 807 | 944 | 330 | 839
CGCAGUGAUGUUGCGAACAUAAUGCAUUCAGAGGAUAUUCGUUUGGGAAGAAGGCUGAAUCGUUUUUCGAGUGAUGUUUGAGGAA [Same State FMN A GF 18] | 106 | 88.2 | 114 | 91 | 94.6
CGCAGUGAUGUUGCGAGUAGAUACAGGGAAGGAGCGCCGUAGUAGGCAGGUAGGUCGCCCACGCAGUGAUGUUGCGUCAUAGGGU [Exclusion Arginine A GF 5] | 104 | 91.8 | 97.1 | 116 | 87.6
CGCAGUGAUGUUGCGAGUAGCUACAGGGAAGGAGCGCGCUAGUGCGCAGGUAGGUCGCCCACGCAGUGAUGUUGCGUCAUAGGGU [Exclusion Arg A GF8] | 139 | 114 | 114 | 137 | 109
CGCAGUGAUGUUGCUAUUAUUCUUGAUUAACGAGGACCGGUACGGCCGCCACUCGAUUUCUAUCUGAUCCAGUGUUUUGUUGAGU [#22 K4 Tryptophan A Exclusion] | 296 | 364 | 396 | 360 | 182
CGCAGUGAUGUUGCUAUUAUUCUUGGUUAACGAGGACCGGUACGGCCGCCACUCGGUUUCUAUCUAAUCCAGUGUUUUUUUGAGU [#24 K4 Tryptophan A Exclusion] | 425 | 506 | 556 | 573 | 246
CGCCGCAAGGCGAGCGCUCCCACUCCGGAAGGAGCGCCCGUAAGGGCAGGUAGGUCGCCGGAGUGAUGUUCCGGUGGAGGGCUCG [#2 Exclusion - Arginine A Attempt #14 (Inspired by Omei)] | 226 | 224 | 469 | 33 | 184
CGCCGUAAGGCGAGCGCUCCCACUCCGGAAGGAGCGCCCGGAAGGGCAGGUAGGUCGCCGGAGUGAUGUUCCGGUGGAGGGCUCG [#2 Exclusion - Arginine A Attempt #12 (Inspired by Omei)] | 229 | 144 | 282 | 221 | 317
CGCCGUAAGGCGGUCGCUCCCACUCCGGAAGGAGCGCCCGUAAGGGCAGGUAGGUCGCCGGAGUGAUGUUCCGGUGGAGGGACCG [#2 Exclusion - Arginine A Attempt #8 (Inspired by Omei)] | 323 | 274 | 339 | 352 | 330

Sequence | apparent KD of K4 kissing-loop reporter (input ligand: FMN 200 uM) [nM] | apparent KD of K4 kissing-loop reporter (input ligand: arginine 13.2 mM) [nM] | apparent KD of K4 kissing-loop reporter (input ligand: none) [nM] | apparent KD of K4 kissing-loop reporter [1] [nM] | apparent KD of K4 kissing-loop reporter [2] [nM]
CGCGCGCGCUUGAGAGGGCGCGCGCGAAGUGAGGAUAUUUAGGGAGAAAGAAGGCACUAUAAAAUAUAGUGAUGUUAUAUAAGGG [SSFMNA.E] | 1180 | 240 | 468 | 2790 | 441
CGCGCGCGUUGAGAGGCGCGCGCGAAUGAUACCAGUAUAUAAGAAUACCCUUGGCAGCAUAAGAAAGAUAUAGUGAUGUUGUAUA [SSTheophA.E] | 67.3 | 264 | 293 | 466 | 188
CGCGCGCGUUUGAGAGGGCGCGCGCGAAGUGAGGAUAUUUAGGGAGAAAGAAGGCACUAUAAAAUAUAGUGAUGUUAUAUAAGGG [SSFMNA.F] | 603 | 111 | 288 | 469 | 186
CGCUCGAAAAUUAAGUGAGUGAUGUUCACUCGAGGACCGGUACGGCCGCCACUCGUCUUACGUUGAGACACUGCUCGUACUCAUA [theeternabot_exclusion_KL_Trp_A_38] | 683 | 674 | 900 | 722 | 498
CGGAUGUAGUGAUGUUAUAUAAGAUGUAGACGAGGACCGGUACGGCCGCCACUCGAAACGGCUACUAGCGCGUUGCGAGGUGUGC [ExTryptoA.CI] | 952 | 460 | 960 | 674 | 514
CGGAUGUAGUGAUGUUAUAUUAGAUGUAGACGAGGACCGGUACGGCCGCCACUCGAAACGGCUGCUAGCGCGUUGCGAGGUGUGC [ExTryptoA.Ck] | 341 | 525 | 1120 | 419 | 456
CGGAUGUAGUGAUGUUAUAUUAGAUGUAGACGAGGACCGGUACGGCCGCCACUCGUGAUGGCUGCUAGCACGUUUCGAUGUUUGC [ExTryptoA.Cq] | 669 | 483 | 624 | 611 | 434
CGGCCCGGCGCGGCCGCCACUGUGCCUGGGCGCUUGCCGAGUGAUGUUCGUCGGCGGUCGGGUGGCAGGACCGGGCGCCGGUCCG [BDazzled - #26 SS Tryptophan B] | 137 | 129 | 131 | 123 | 134
CGGCGCGGCGCGGCCGCCACUGCGCCUGGGUGCUCGCCGAGUGAUGUUCGUCGGCGGUUGGGUGGCAGGACCGGGUGCCGGCCCG [BDazzled - #18 SS Tryptophan B] | 930 | 703 | 827 | 1030 | 768
CGGCUCACGCAAGGAUAUCGCAGUGAGUACUCUGGAAGAAUAAAGCUAGUGAUGUUAGGUUAGAAGCGAGAAGGUGCGGCCGUAU [theeternabot_sameState_KL_FMN_B_30] | 126 | 96.5 | 128 | 197 | 137
CGGUAGUCUAUAGGGUCCAGUGAUGUUGGACAGGAUAUGCUACGCCGCAGAAGGGUCCAACUGGUUGUGAAGUUGGCUACUAGGC [Somaaxe] | 144 | 200 | 168 | 147 | 189
CGUACGGUUUCUUUCUUUCCGUACGAGUGCCGAGGACCGGUACGGCCGCCACUCGCUACAGCCUAGUGAUGUUAGGCAUUUCUUU | 104 | 110 | 105 | 146 | 94.1
CGUAGUUGGGCGGCCGCCACUUGAAAAGCUUUGCCAAAGGCAGAGCUCUAGAGUGAUGUUCUGGCAAGGACCGGGUCCAACUACA [#03 K4 Tryptophan B Same State] | 869 | 719 | 872 | 590 | 358
CGUAGUUGGGCGGCCGCCACUUGAACAGCUUUGCCAAAGGCAGAGCUCUAGAGUGAUGUUCUGGCAAGGACCGGGUCCAACUACA [#02 K4 Tryptophan B Same State] | 1270 | 777 | 1240 | 822 | 423
CUAGAAGUGAUGUUUCAUAGUAAAUCUGAUACCAGCAUUAAACCCUGCCCUUGGCAGCAGAAUGGGCUGAUAGACUCCUGCAGCU [theeternabot_sameState_KL_Theo_A_36] | 220 | 199 | 228 | 208 | 182
CUAGGCCCUCGGCGGGACAUUGCGUGGGAAGGAGCGCAGAUAACUGCAGGUAGGUCGCCCAGUGAUGUUGGGCGAAUAUUGGUCA [Esinabige] | 102 | 98.3 | 124 | 120 | 110
CUAUCCCGCCGUGUAUGUAGUAUACGGUGCCGAGGACCGGUACGGCCGCCACUCGAUAAGCUUUGUCGGAGUGAUGUUCCGACCG [Soleesen] | 277 | 181 | 213 | 263 | 265
CUCGAGUGAUGUUCGAUUAUGUAUACAGAUACCAGUGAAUUUUAACACCCUUGGCAGCUGGUAGAAUCAUUUUAAUUUUAACUAG [JR_SSTheophyA_Sub021] | 201 | 256 | 221 | 268 | 162
CUCGAGUGAUGUUCGAUUAUGUAUACAGAUACCAGUGAAUUUUAACACCCUUGGCAGCUGGUAGAAUCUUUGUAAUUUUAACUAG [JR_ExcTheophyA_Sub002] | 162 | 253 | 180 | 230 | 134
CUCGAGUGAUGUUCGAUUAUUUAUACAGAUACCAGUGAAUUUUAACACCCUUGGCAGCUGGUUGUAUCUUUGUUUUUUACACAAG [JR_ExcTheophyA_Sub006] | 117 | 177 | 118 | 172 | 107
CUCGUGGGUUUGAGAGGGCUUGUGGGAAGAUAGGAUAUCUAGGGAGGGAGAAGGAUCUAUAGAAUAUAGUGAUGUUAUAUAUGGG [#05 K4 FMN A Same State] | 164 | 131 | 87.7 | 154 | 122
